Test [1] deals with T1, HER2-ECD-Fc (human, UniProt P04626 23-652).
T1 construct: extracellular domain; Produced in FreeStyle 293F cells; also called HER2-ECD Fc fusion protein
Nature of the test: ELISA on HER2-ECD-Fc; antibody at 5 × 10^-6 µg/mL. In general terms: An ELISA detects its analyte on a solid surface through an enzyme-linked reagent.

Test [2] addresses T1, HER2-ECD-Fc. Kind of test: ELISA on HER2-ECD-Fc; antibody at 5 × 10^-7 µg/mL.
A further test concerns the target T2, HER2-ECD DI Fc (human, UniProt P04626 23-217, limits assumed).
T2 construct: domain: domain 1; also called domain 1 of the extracellular domains of the HER2 protein; not shown: Hinge and Fc region (CH2-CH3) of human IgG1, at the C-terminus
Nature of the test: ELISA on plate-coated HER2 domain-Fc fusion (1 µg/mL), anti-human IgG-HRP, Abs 450 nm; antibody concentration not given. The method, then:
(§1) The HER2-ECD DI Fc, HER2-ECD DII Fc, HER2-ECD DIII Fc, HER2-ECD DIV Fc and HER2-ECD Fc fusion proteins were immobilized at 4° C. overnight onto a Costar 96-well plate (Corning, Cat. No. 3590) at a concentration of 1 μg/mL […]. The resultant was washed 3 times with TBS-T (0.05% Triton X-100) and then blocked at room temperature for 1 hour with 100 μL of TBS-T/BSA (5% BSA). After washing the blocked plate 3 times and adding the anti-HER2 antibody, the antibody was allowed to bind at room temperature for 1 hour. After washing 3 times and then adding anti-human IgG-HRP diluted to 1:3,000 in TBS-T/BSA, as a secondary antibody, the antibody was allowed to bind at room temperature for 1 hour. After washing the resultant 3 times and adding TMB (SurModics, Cat. No. TMBC-1000-01), the mixture was allowed to develop color at room temperature for 5 minutes. Then, the color development was stopped by adding 1 N sulfuric acid (DukSan, Cat. No. 254). Absorbance was measured at 450 nm using Victor X3 (PerkinElmer, Cat. No. 2030-0030).

Test [3] deals with T1, HER2-ECD-Fc. Kind of test: ELISA on HER2-ECD-Fc; antibody at 5 × 10^-4 µg/mL.
Test [4] has as its target T1, HER2-ECD-Fc. Kind of test: ELISA on HER2-ECD-Fc; antibody at 5 × 10^-1 µg/mL.
For test [5], the target named is T1, HER2-ECD-Fc. Nature of the test: ELISA on HER2-ECD-Fc; antibody at 5 µg/mL.
Test [6] concerns the target T1, HER2-ECD-Fc. Nature of the test: ELISA on HER2-ECD-Fc; antibody at 5 × 10^-2 µg/mL.
Test [7] deals with T1, HER2-ECD-Fc. Nature of the test: ELISA on HER2-ECD-Fc; antibody at 5 × 10^-5 µg/mL.
The target in test [8] is T1, HER2-ECD-Fc. Kind of test: ELISA on HER2-ECD-Fc; antibody at 5 × 10^-3 µg/mL.
Test [9] has as its target T3, HER4 (R&D Systems, #1131-ER-050) (human, UniProt Q15303 26-651).
T3 construct: extracellular domain; Bought
T3 sequence (looked up): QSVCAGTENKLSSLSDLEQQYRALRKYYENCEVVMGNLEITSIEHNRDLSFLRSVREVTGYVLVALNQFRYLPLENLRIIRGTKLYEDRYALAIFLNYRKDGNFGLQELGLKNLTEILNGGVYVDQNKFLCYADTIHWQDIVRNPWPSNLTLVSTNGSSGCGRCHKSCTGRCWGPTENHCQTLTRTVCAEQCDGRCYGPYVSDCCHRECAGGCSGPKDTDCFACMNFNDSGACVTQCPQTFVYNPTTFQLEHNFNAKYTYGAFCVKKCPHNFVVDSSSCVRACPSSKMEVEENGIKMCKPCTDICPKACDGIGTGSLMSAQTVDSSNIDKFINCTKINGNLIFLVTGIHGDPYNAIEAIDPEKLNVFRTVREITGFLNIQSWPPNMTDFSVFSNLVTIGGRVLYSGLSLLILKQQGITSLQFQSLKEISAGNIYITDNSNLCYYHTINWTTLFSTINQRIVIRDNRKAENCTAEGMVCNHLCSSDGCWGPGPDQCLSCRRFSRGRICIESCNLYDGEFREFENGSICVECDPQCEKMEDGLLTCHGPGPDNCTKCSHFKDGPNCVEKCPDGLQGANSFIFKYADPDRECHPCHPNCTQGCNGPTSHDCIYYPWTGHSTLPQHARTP
Nature of the test: ELISA on ErbB family extracellular domains, Absorbance at 450 nm; antibody concentration not given. The text has this:
(§2) It was investigated whether the developed five antibodies of the present disclosure specifically bind to HER2 belonging to the ErbB family proteins by ELISA.

In test [10] the target is T4, HER3 (R&D Systems, #348-RB-050) (human, UniProt P21860 20-643).
T4 construct: extracellular domain; Bought
The description is as above.
From the text: as §2

A further test has as its target T5, EGFR-ECD-Fc (human, UniProt P00533 25-645).
T5 construct: extracellular domain; also called extracellular domain of EGFR; not shown: Hinge and Fc region (CH2-CH3) of human IgG1; The protein was produced in the same manner as HER2-ECD-Fc
Described as above.
From the text: as §2

Test [11] deals with T1, HER2-ECD-Fc. Kind of test: ELISA on HER2-ECD-Fc; antibody at 50 µg/mL.
The next test deals with T6, HER2-ECD DIII Fc (human, UniProt P04626 342-510, limits assumed).
T6 construct: domain: domain 3; also called domain 3 of the extracellular domains of the HER2 protein; not shown: Hinge and Fc region (CH2-CH3) of human IgG1, at the C-terminus
Nature of the test: ELISA on plate-coated HER2 domain-Fc fusion (1 µg/mL), anti-human IgG-HRP, Abs 450 nm; antibody concentration not given. The method, then:
as §1

The target of a further test is T7, HER2-ECD-His (human, UniProt P04626 23-652).
T7 construct: extracellular domain; also called HER2-His; HER2-ECD-His protein; not shown: His tag
Nature of the test: SPR (Biacore, CM5), IgG captured by anti-human IgG, HER2-ECD-His as analyte. The method, then: 2000 RU of goat anti-human IgG (Invitrogen, #H10500) was immobilized onto a CM5 sensor chip by […]. Then, the antibodies were allowed to bind at a rate of 50 μL/min for 5 minutes and then stabilized for 5 minutes by flowing a buffer. After stabilizing the antibodies, the HER2-ECD-His protein was allowed to bind at a rate of 50 μL/min for 4 minutes and then separated by flowing a buffer for 15 minutes. After analyzing the concentration, the resultant was recycled using 10 mM glycine (pH 1.5) and then subjected to the subsequent assay. The affinity of the antibodies was analyzed using the BIAevaluation software.
Background: Surface plasmon resonance follows binding to a sensor surface in real time, without labels.

As usually defined, the Kd is the free concentration of one partner at which half of the binding sites on the other are occupied at equilibrium, for simple one-to-one binding. Read a low Kd as tighter binding. The koff is a measure of how fast the partners let go of each other. High values mean fast dissociation, low ones slow dissociation. What is called kon is the second-order rate constant of association. The low end stands for slower complex formation, the high end for faster complex formation.

B1: 24D3 (antibody, V domains shown)
VH: EVKLVESGGGLVKPGGSLKLSCAASGFTFSSCAMSWVRQTPEKRLEWVATISGGGSYTYYPDSVKGRFTISRDNAKNTLYLQMSSLRSEDTAMYYCARHGGYESWFPYWGQGTLVTVSA
VL: DIVMTQSPLSLPVSLGDQASISCRSSQSLVHSNGNTYLHWYLQKPGQSPKLLIYKVSNRFSGVPDRFSGSGSGTDFTLKISRVEAEDLGVYFCSQSTHVPPWTFGGGTKLEIK
Take B1: the absorbance in the test with HER2-ECD-Fc [1] worked out at 0.11; with HER2-ECD-Fc [2], 0.11; with HER2-ECD-Fc [3], 0.22; with HER2-ECD-Fc [4] it was 2.9; with HER2-ECD-Fc [5] it was 2.92; in the test with HER2-ECD-Fc [6], 2.76. Besides, the absorbance with HER2-ECD-Fc [7] is 0.12; with HER2-ECD-Fc [8] it was 1.13; with HER2-ECD-Fc [11] it was 2.75. Further, the binding result (in the test with HER2-ECD DI Fc; in [9]; in test [10]; with EGFR-ECD-Fc) was “no binding” each time.

B2: hz2G10 (antibody, V domains shown)
VH: EVQLVESGGGLVQPGGSLRLSCAASGFTFSDYYMYWVRQAPGKGLEWVAYINSGGGSTYYPDTVKGRFTISRDNAKNSLYLQMNSLRAEDTAVYYCAREALYDYDYAMDYWGQGTTVTVSS
VL: DIVMTQSPLSLSVTPGQPASISCKSSQSLLYSNGKTYLNWLLQKPGQSPQRLIYLVSKLDSGVPDRFSGSGSGTDFTLKISRVEAEDVGVYYCVQGTHFPLTFGGGTKVEIK
notes: Humanized antibody, detected with anti-human IgG-HRP; Only the variable domains are tied to the name; also called humanized 2G10 antibody
Regarding B2, the absorbance with HER2-ECD-Fc [1] stood at 0.12; with HER2-ECD-Fc [2], 0.12; with HER2-ECD-Fc [3] it was 0.12; with HER2-ECD-Fc [4], 2.69; with HER2-ECD-Fc [5], 2.79; with HER2-ECD-Fc [6] it was 1.16. Further, the absorbance with HER2-ECD-Fc [7] turned out to be 0.12; with HER2-ECD-Fc [8] it was 0.22; with HER2-ECD-Fc [11], 2.81. For the same molecule, the binding result (with HER2-ECD DIII Fc; in [9]; in test [10]; in the test with EGFR-ECD-Fc) was “no binding” each time.

B3: hz39D2 (antibody, V domains shown)
VH: QVQLVQSGSELKKPGASVKVSCKASGYTFTNYGVNWVRQAPGQGLEWMGWINTHTGEPTYAEEFKGRFVFSLDTSVSTAYLQISSLKAEDTAVYYCARDDYYVRVDYWGQGTTVTVSS
VL: DIQMTQSPSSLSASVGDRVTITCKASQDINSYLSWFQQKPGKAPKTLIYRANRLVDGVPSRFSGSGSGQDYTLTISSLQPEDFATYYCLQYDEFPWTFGQGTKVEIK
notes: Humanized antibody, captured as IgG by anti-human IgG in SPR; also called humanized 39D2 antibody
In the case of B3, the absorbance with HER2-ECD-Fc [1] stood at 0.12; in the test with HER2-ECD-Fc [2] it was 0.12; with HER2-ECD-Fc [3], 0.47; in the test with HER2-ECD-Fc [4], 2.78; with HER2-ECD-Fc [5] it was 2.9; with HER2-ECD-Fc [6], 2.92. For the same molecule, the absorbance is 0.15 in the test with HER2-ECD-Fc [7], 2.29 with HER2-ECD-Fc [8] and 2.83 with HER2-ECD-Fc [11]. For the same molecule, the binding result (with HER2-ECD DIII Fc; in test [9]; in [10]; with EGFR-ECD-Fc) was “no binding” in each case. The molecule further yielded a Kd with HER2-ECD-His of 37 nM. In the test with HER2-ECD-His, this molecule yielded a koff of 0.0025 s⁻¹. Further, the kon with HER2-ECD-His came out at 68000 M⁻¹ s⁻¹.

B4: hz39D2.14 (antibody, V domains shown)
VH: QVQLVQSGSELKKPGASVKVSCKASGYTFTNYGVNWVRQAPGQGLEWMGWINTHTGEPTYAEEFKGRFVFSLDTSVSTAYLQISSLKAEDTAVYYCARDEYYVRTDYWGQGTTVTVSS
VL: DIQMTQSPSSLSASVGDRVTITCKASQDINSYLSWFQQKPGKAPKTLIYRANRLVDGVPSRFSGSGSGQDYTLTISSLQPEDFATYYCLQYDEFPWTFGQGTKVEIK
In the test with HER2-ECD-His, B4 registered a Kd of 8 nM, a koff of 0.0003 s⁻¹ and a kon of 37000 M⁻¹ s⁻¹.

B5: hz39D2.22 (antibody, V domains shown)
VH: QVQLVQSGSELKKPGASVKVSCKASGYTFTNYGVNWVRQAPGQGLEWMGWINTHTGEPTYAEEFKGRFVFSLDTSVSTAYLQISSLKAEDTAVYYCARDEYYVRVDYWGQGTTVTVSS
VL: DIQMTQSPSSLSASVGDRVTITCKASQDINSYLSWFQQKPGKAPKTLIYRANRLVDGVPSRFSGSGSGQDYTLTISSLQPEDFATYYCLELDEFPWTFGQGTKVEIK
As for B5, in the test with HER2-ECD-His, the Kd stood at 2 nM, the koff is 0.00016 s⁻¹ and the kon is 81000 M⁻¹ s⁻¹.

B6: hz39D2.23 (antibody, human IgG1, kappa, V domains shown)
VH: QVQLVQSGSELKKPGASVKVSCKASGYTFTNYGVNWVRQAPGQGLEWMGWINTHTGEPTYAEEFKGRFVFSLDTSVSTAYLQISSLKAEDTAVYYCARDEYYVRVDYWGQGTTVTVSS
VL: DIQMTQSPSSLSASVGDRVTITCKASQDINSYLSWFQQKPGKAPKTLIYRANRLVDGVPSRFSGSGSGQDYTLTISSLQPEDFATYYCLQLDEFPWTFGQGTKVEIKR
In the test with HER2-ECD-His, B6 yielded a Kd of 2.8 nM, a koff of 0.0002 s⁻¹ and a kon of 71000 M⁻¹ s⁻¹.

These data come from patent US20260028418A1 (GC CELL, published 2026).
